For 14 molecules, binding signal ratio to isotype control (11 nM) and Total Binding results are on record in patent publication US20200368361A1.

Test [1] concerns the target endogenously expressed human MSR1 on PMA-treated THP-1 cells (human) (UniProt P21757). The test can be described thus: ECL cell binding, PMA-treated THP-1.
Test [2] has as its target human MSR1 endogenously expressed on PMA-differentiated THP-1 cells (human) (UniProt P21757). The test can be described thus: imaging of PMA-differentiated THP-1 cells, 10 ug/mL antibody, Alexa 488 secondary.

Sequence of endogenously expressed human MSR1 on PMA-treated THP-1 cells (human) (P21757 whole entry): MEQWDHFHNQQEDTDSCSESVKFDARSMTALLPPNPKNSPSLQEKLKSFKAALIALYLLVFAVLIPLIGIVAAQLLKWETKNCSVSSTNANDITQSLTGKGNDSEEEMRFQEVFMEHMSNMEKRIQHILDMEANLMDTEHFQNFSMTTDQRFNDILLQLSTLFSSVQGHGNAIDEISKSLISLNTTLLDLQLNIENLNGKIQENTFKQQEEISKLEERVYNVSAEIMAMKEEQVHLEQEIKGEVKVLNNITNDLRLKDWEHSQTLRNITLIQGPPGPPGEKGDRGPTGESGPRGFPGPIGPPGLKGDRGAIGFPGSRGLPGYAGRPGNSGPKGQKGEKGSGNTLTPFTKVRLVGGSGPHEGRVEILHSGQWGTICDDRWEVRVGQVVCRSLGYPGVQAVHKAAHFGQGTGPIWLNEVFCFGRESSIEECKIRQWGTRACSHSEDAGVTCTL
Sequence of human MSR1 endogenously expressed on PMA-differentiated THP-1 cells (human) (P21757 whole entry): as above

B1: H1H27739P-N297Q (antibody, human IgG1, V domains shown)
VH: EVQLVESGGGLVQPGGSLRLSCTASGFTFSSYAMSWVRQAPGKGLEWVSAISGTGSSTYFTDSVKGRFAISRDNSKNTLYLQMNSLRAEDTAVYYCAKDGEWLSTVTLFDYWGQGTLVTVSS
VL: EIVMTQSPATLSVSPGERATLSCRASQSVSSNLAWYQQKPGQAPRLLIYGASTRATGIPARFSGSGSGTDFTLTISSLQSEDFALYYCQQYFIWPPHPTFGPGTKVDIKR
For the molecule B1, the binding signal ratio to isotype control (11 nM) in test [1] was 9 fold. In test [2], this molecule showed a Total Binding at 4° C. of 3.7e+06 RFU and a Total Binding at 37° C. of 5.61e+06 RFU.

B2: H1H27734P-N297Q (antibody, human IgG1, V domains shown)
VH: EVQLVESRGGLVQPGGSLRLSCAASGFTFSSYAMSWVRQAPGKGLEWVSAISGSGGSTFYADSVKGRFTISRDNSKNTVYLQMNSLRAEDTAVYYCAKALVLRFLEWLGDYWGQGTLVTVSS
VL: DIQMTQSPSTLSASVGDRVTITCRASQSISSWLAWFQQKPGKAPKLLIYKASSLESGVPSRFSGSGSGTEFTLTISSLQPDDFATYYCQQYKSYWTFGQGTKVEIKR
Turning to B2, in test [1], the binding signal ratio to isotype control (11 nM) was 21 fold. In test [2], this molecule gave a Total Binding at 4° C. of 483000 RFU and a Total Binding at 37° C. of 1.15e+06 RFU.

B3: H2aM21229N (antibody, mouse IgG2a, V domains shown)
VH: EVQLVESGGGLVKPGGSLRLSCAASGFTFSRYSMNWVRQAPGKGLEWVSSISSSSSYIYYGDTVKGRFTISRDNAKKSLYLQMNSLRAEDTAVYYCVRDRGQLVLYFDYWGQGTLVTVSS
VL: DIQMTQSPASLSTSIRDRVTITCRASLSISSFLNWFQQRPGKAPKLLIYVASNLQSGVPSRFSDSGSGTDFTLTISSLQPEDFATYYCQQNYSTPPITFGQGTRLEIK
B3: the binding signal ratio to isotype control (11 nM) in test [1] stood at 56 fold.

B4: H1H27747P-N297Q (antibody, human IgG1, V domains shown)
VH: QVQLVESGGAVVQPGRSLRLSCAASGFTFSYYGMHWVRQAPGKGLEWVAVISYDGSKKYYADSVKGRFTISRDNSKNTLYLQMNSLRAEDTAVYYCAKDLTVDFYYGMDVWGQGTTVTVSS
VL: DIQMTQSPSSVSASVGDRVTITCRASQGISSWLAWYQQKPGKAPKLLIYATSSLQSGAPSRFSGSGSGTDFTLTISSLQPEDFATYFCQQANSFPYTFGQGTKLEIKR
Consider B4, for which the binding signal ratio to isotype control (11 nM) in test [1] came to 13 fold. Further, in test [2], the Total Binding at 4° C. turned out to be 2.52e+06 RFU and the Total Binding at 37° C. turned out to be 5.92e+06 RFU.

B5: H1H27754P-N297Q (antibody, human IgG1, V domains shown)
VH: EVQLVESGGGLVQPGGSLRLSCAASGFTFRTYAMTWVRQAPGKGLDWVSAITGDGGNTYYADSVKGRFTISRDNSKNTLYLQMNSLRAEDTAIYYCAKDQRFSFALYYFDYWGQGTLVTVSS
VL: DIQMTQSPSSVSASVGDRVTITCRASQGISSWLAWYQQKPGNAPKLLIYAAFSLQSGVPSRFSGSGSGTDFTLTISSLQPEDFATYYCQQANNFPWTFGQGTKVEIKR
Consider B5, for which the binding signal ratio to isotype control (11 nM) in test [1] was 66 fold. In test [2], this molecule gave a Total Binding at 4° C. of 3.08e+06 RFU and a Total Binding at 37° C. of 7.16e+06 RFU.

B6: H1H27729P-N297Q (antibody, human IgG1, V domains shown)
VH: QVQLVESGGGLVKPGGSLRLSCAASGFIFSDYYMSWIRQAPGKGLEWVSYISSSGTTIYGDSVKGRFTMSRDNAKNSLYLQMNSLRAEDTAVYYCARNYALFDYWGQGTLVTVSS
VL: DIQMTQSPSSLSASVGDRVTITCQASQDISKYLNWYQQKPGKAPKLLIYYTSNLETGVPSRFSGSGSGTDFTFTISSLQPEDIATYYCHQSDYLPFTFGPGTKVDIKR
Turning to B6, the binding signal ratio to isotype control (11 nM) in test [1] was 8 fold. In test [2], this molecule had a Total Binding at 4° C. of 1.93e+06 RFU and a Total Binding at 37° C. of 6.61e+06 RFU.

B7: H1H21234N-N297Q (antibody, human IgG1, V domains shown)
VH: QVQLQESGPGLVKPSETLSLTCTVTGGSISRNYWSWIRQPPGKGLEWIGYIYYSGSIDYNPSLKSRVTISVDTSKNQFSLKLSSMTAADTAVYYCARDRWNWKYGMDVWGQGTTVIVSS
VL: EIVLTQSPGTLSLSPGERATLSCRASQTVRNNYLAWYHQKPGQAPRLLIYGASSRATGIPDRFSGSGSGTDFTLTISRLEPEDFTVYYCHQYGNSPWTFGQGTKMEIKR
B7: the binding signal ratio to isotype control (11 nM) in test [1] was 25 fold. In test [2], this molecule showed a Total Binding at 4° C. of 1.95e+06 RFU and a Total Binding at 37° C. of 5.45e+06 RFU.

B8: H2aM25695N (antibody, mouse IgG2a, V domains shown)
VH: QVQLQESGPGLVKPSETLSLTCTVTGGSISRNYWSWIRQPPGKGLEWIGYIYYSGSINYNPSLKSRVTISVDMSKNQFSLKLNSVTAADTAVYYCARDRWNWKYGMDVWGQGTTVIVSS
VL: EIVLTQSPGTLSLSPGERATLSCRASQTVRNSYLAWYHQKPGQAPRLLIYGASSRATGIPDRFSGSGSGTDFTLTISRLEPEDFAVYYCQQYGSSYWTFGQGTKMEIKR
Regarding B8, the binding signal ratio to isotype control (11 nM) in test [1] was determined as 8 fold.

B9: H1H21234N (antibody, human IgG1, V domains shown)
VH: QVQLQESGPGLVKPSETLSLTCTVTGGSISRNYWSWIRQPPGKGLEWIGYIYYSGSIDYNPSLKSRVTISVDTSKNQFSLKLSSMTAADTAVYYCARDRWNWKYGMDVWGQGTTVIVSS
VL: EIVLTQSPGTLSLSPGERATLSCRASQTVRNNYLAWYHQKPGQAPRLLIYGASSRATGIPDRFSGSGSGTDFTLTISRLEPEDFTVYYCHQYGNSPWTFGQGTKMEIKR
In the case of B9, the binding signal ratio to isotype control (11 nM) in test [1] was 18 fold.

B10: H1H21227N-N297Q (antibody, human IgG1, V domains shown)
VH: QVQLVQSGAEVKKPGASVKVSCKVSGYTLTELSIHWVRQVPGKGLEWMGGFDPEEGETIFAQEFRDRVTLTEDTSPDTAYMELSSLKSEDAAVYYCTTPRYCNNGICYDYWGQGTLVTVSS
VL: DIQMTQSPSSLSASVGDRVTITCRASQSISNYLNWYQQKPGKAPKLLIYTASSLQSGVPSRFSGSGSGTDFTLTISSLQTEDFATYYCQQSYSNFPITFGQGTRLEIKR
In the case of B10, the binding signal ratio to isotype control (11 nM) in test [1] worked out at 5 fold. Also, in test [2], the Total Binding at 4° C. came out at 1.8e+06 RFU and the Total Binding at 37° C. worked out at 4.11e+06 RFU.

B11: H1H21231N-N297Q (antibody, human IgG1, V domains shown)
VH: EVQLVESGGGLVQPGGSLRLSCAASGFTFSDHYMDWVRQAPGKGLEWVGRTRNKANSHTTEYTASVTGRFTISRDDSRNSLYLQMNSLKTEDTAVYYCVRAGIIGTLFDYWGQGTLVTVSS
VL: DIQMTQFPSSLSASVGDRVTITCRASQSISSFLNWFQQKPGKAPKFLIYAASSLQSGVPSRFSGSGSGTDFTLTISSLQPEDFATYYCQQSYSSPPITFGQGTRLEIKR
As to B11, in test [1], the binding signal ratio to isotype control (11 nM) came to 45 fold.

B12: H1H21227N (antibody, human IgG1, V domains shown)
VH: QVQLVQSGAEVKKPGASVKVSCKVSGYTLTELSIHWVRQVPGKGLEWMGGFDPEEGETIFAQEFRDRVTLTEDTSPDTAYMELSSLKSEDAAVYYCTTPRYCNNGICYDYWGQGTLVTVSS
VL: DIQMTQSPSSLSASVGDRVTITCRASQSISNYLNWYQQKPGKAPKLLIYTASSLQSGVPSRFSGSGSGTDFTLTISSLQTEDFATYYCQQSYSNFPITFGQGTRLEIKR
Regarding B12, the binding signal ratio to isotype control (11 nM) in test [1] was 7 fold.

B13: H1H21227N-N297D (antibody, human IgG1, V domains shown)
VH: QVQLVQSGAEVKKPGASVKVSCKVSGYTLTELSIHWVRQVPGKGLEWMGGFDPEEGETIFAQEFRDRVTLTEDTSPDTAYMELSSLKSEDAAVYYCTTPRYCNNGICYDYWGQGTLVTVSS
VL: DIQMTQSPSSLSASVGDRVTITCRASQSISNYLNWYQQKPGKAPKLLIYTASSLQSGVPSRFSGSGSGTDFTLTISSLQTEDFATYYCQQSYSNFPITFGQGTRLEIKR
Turning to B13, in test [1], the binding signal ratio to isotype control (11 nM) came to 6 fold.

B14: H1H21231N (antibody, human IgG1, V domains shown)
VH: EVQLVESGGGLVQPGGSLRLSCAASGFTFSDHYMDWVRQAPGKGLEWVGRTRNKANSHTTEYTASVTGRFTISRDDSRNSLYLQMNSLKTEDTAVYYCVRAGIIGTLFDYWGQGTLVTVSS
VL: DIQMTQFPSSLSASVGDRVTITCRASQSISSFLNWFQQKPGKAPKFLIYAASSLQSGVPSRFSGSGSGTDFTLTISSLQPEDFATYYCQQSYSSPPITFGQGTRLEIKR
With B14, the binding signal ratio to isotype control (11 nM) in test [1] worked out at 42 fold.
